Measured values published in IntAct's records for PubMed 23650535.

B1: Receptor-type tyrosine-protein phosphatase eta (Homo sapiens), Q12913 (parent)
chain: MKPAAREARLPPRSPGLRWALPLLLLLLRLGQILCAGGTPSPIPDPSVATVATGENGITQISSTAESFHKQNGTGTPQVETNTSEDGESSGANDSLRTPEQGSNGTDGASQKTPSSTGPSPVFDIKAVSISPTNVILTWKSNDTAASEYKYVVKHKMENEKTITVVHQPWCNITGLRPATSYVFSITPGIGNETWGDPRVIKVITEPIPVSDLRVALTGVRKAALSWSNGNGTASCRVLLESIGSHEELTQDSRLQVNISGLKPGVQYNINPYLLQSNKTKGDPLGTEGGLDASNTERSRAGSPTAPVHDESLVGPVDPSSGQQSRDTEVLLVGLEPGTRYNATVYSQAANGTEGQPQAIEFRTNAIQVFDVTAVNISATSLTLIWKVSDNESSSNYTYKIHVAGETDSSNLNVSEPRAVIPGLRSSTFYNITVCPVLGDIEGTPGFLQVHTPPVPVSDFRVTVVSTTEIGLAWSSHDAESFQMHITQEGAGNSRVEITTNQSIIIGGLFPGTKYCFEIVPKGPNGTEGASRTVCNRTVPSAVFDIHVVYVTTTEMWLDWKSPDGASEYVYHLVIESKHGSNHTSTYDKAITLQGLIPGTLYNITISPEVDHVWGDPNSTAQYTRPSNVSNIDVSTNTTAATLSWQNFDDASPTYSYCLLIEKAGNSSNATQVVTDIGITDATVTELIPGSSYTVEIFAQVGDGIKSLEPGRKSFCTDPASMASFDCEVVPKEPALVLKWTCPPGANAGFELEVSSGAWNNATHLESCSSENGTEYRTEVTYLNFSTSYNISITTVSCGKMAAPTRNTCTTGITDPPPPDGSPNITSVSHNSVKVKFSGFEASHGPIKAYAVILTTGEAGHPSADVLKYTYEDFKKGASDTYVTYLIRTEEKGRSQSLSEVLKYEIDVGNESTTLGYYNGKLEPLGSYRACVAGFTNITFHPQNKGLIDGAESYVSFSRYSDAVSLPQDPGVICGAVFGCIFGALVIVTVGGFIFWRKKRKDAKNNEVSFSQIKPKKSKLIRVENFEAYFKKQQADSNCGFAEEYEDLKLVGISQPKYAAELAENRGKNRYNNVLPYDISRVKLSVQTHSTDDYINANYMPGYHSKKDFIATQGPLPNTLKDFWRMVWEKNVYAIIMLTKCVEQGRTKCEEYWPSKQAQDYGDITVAMTSEIVLPEWTIRDFTVKNIQTSESHPLRQFHFTSWPDHGVPDTTDLLINFRYLVRDYMKQSPPESPILVHCSAGVGRTGTFIAIDRLIYQIENENTVDVYGIVYDLRMHRPLMVQTEDQYVFLNQCVLDIVRSQKDSKVDLIYQNTTAMTIYENLAPVTTFGKTNGYIA

Variants of: B1
Details: with flt3_human FLT3, P36888
Chain of flt3_human FLT3, P36888 (P36888 whole entry): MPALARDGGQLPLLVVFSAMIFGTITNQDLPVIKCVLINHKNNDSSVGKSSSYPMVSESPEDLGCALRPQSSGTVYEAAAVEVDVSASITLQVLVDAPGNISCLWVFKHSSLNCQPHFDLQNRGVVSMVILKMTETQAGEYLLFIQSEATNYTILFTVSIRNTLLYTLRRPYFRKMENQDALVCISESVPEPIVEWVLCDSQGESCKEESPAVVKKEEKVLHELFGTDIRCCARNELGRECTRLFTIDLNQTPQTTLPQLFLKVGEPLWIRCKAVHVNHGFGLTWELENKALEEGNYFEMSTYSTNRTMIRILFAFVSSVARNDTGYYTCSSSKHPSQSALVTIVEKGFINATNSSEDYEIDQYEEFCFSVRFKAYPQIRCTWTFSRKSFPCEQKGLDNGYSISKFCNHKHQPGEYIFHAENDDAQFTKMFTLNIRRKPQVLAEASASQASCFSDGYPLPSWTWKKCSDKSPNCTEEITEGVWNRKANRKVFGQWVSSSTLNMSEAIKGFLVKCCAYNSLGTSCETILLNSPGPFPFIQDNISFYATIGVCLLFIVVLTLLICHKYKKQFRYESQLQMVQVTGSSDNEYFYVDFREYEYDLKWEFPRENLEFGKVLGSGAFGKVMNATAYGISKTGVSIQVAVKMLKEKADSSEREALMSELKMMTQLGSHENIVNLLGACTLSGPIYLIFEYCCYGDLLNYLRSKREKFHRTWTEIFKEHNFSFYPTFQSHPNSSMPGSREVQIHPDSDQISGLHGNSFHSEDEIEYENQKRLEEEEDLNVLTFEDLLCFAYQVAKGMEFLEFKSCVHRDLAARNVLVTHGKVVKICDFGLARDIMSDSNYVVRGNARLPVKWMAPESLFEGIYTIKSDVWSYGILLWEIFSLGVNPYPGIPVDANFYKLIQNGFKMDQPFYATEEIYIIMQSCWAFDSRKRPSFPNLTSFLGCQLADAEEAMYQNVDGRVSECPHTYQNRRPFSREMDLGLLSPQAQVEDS

effect of a mutation on the interaction	Variant
increasing interaction strength	C1239S
